Measurements reported in paper PMC5153528.
“And” between values parts separate entries of the source, which are not always exact repeats. Identical values can stand only once.

Legend:
Assay in all cases: SPR; IgG covalently coupled (sNHS/EDC, printed at four densities, sodium acetate pH 4.5-5.0) on a carboxymethyldextran prism (IBIS MX96 array); FcγR injected as analyte, eight part threefold dilution series generally starting between 18 and 41 µM; running buffer PBS + 0.01% BSA + Tween 20; global kinetic analysis, 1:1 model; two experiments with different preparations of FcγR
[1] = biological target: recombinant monoclonal rhesus macaque IgG1 (MM IgG1), anti-CD8α (rhesus macaque (Macaca mulatta))
[2] = biological target: recombinant monoclonal rhesus macaque IgG4 (MM IgG4), anti-CD8α (rhesus macaque (Macaca mulatta))
[3] = biological target: recombinant monoclonal rhesus macaque IgG2 (MM IgG2), anti-CD8α (rhesus macaque (Macaca mulatta))
[4] = biological target: recombinant monoclonal rhesus macaque IgG3 (MM IgG3), anti-CD8α (rhesus macaque (Macaca mulatta))

Substance | Kd [1] | Kd [2] | Kd [3] | Kd [4]
human FcγRIIIb NA1 (from UniProt O75015 17-200) (receptor) | 18 µM and 14 µM | 500 µM and 120 µM | 700 µM and 250 µM | 700 µM and 210 µM
human FcγRIIIa F158 (from UniProt P08637 17-254) (receptor) | 4 µM and 8 µM | 48 µM and 17 µM | 48 µM and 15 µM | 78 µM and 33 µM
human FcγRIIIb SH (from UniProt O75015 17-200) (receptor) | 15 µM and 9 µM | 465 µM and 340 µM | 530 µM and 80 µM | 740 µM and 350 µM
human FcγRIIb/c (from UniProt P31994 43-310) (receptor) | 53 µM and 36 µM | 33 µM and 32 µM | 90 µM and 125 µM | 46 µM and 38 µM
human FcγRIIIb NA2 (from UniProt O75015 17-200) (receptor) | 13 µM and 15 µM | 730 µM and 270 µM |  | 510 µM and 270 µM
human FcγRIIa H131 (from UniProt P12318 34-317) (receptor) | 7 µM and 9 µM | 20 µM and 23 µM | 11 µM | 27 µM and 16 µM
human FcγRIIa R131 (receptor) | 21 µM and 9 µM | 20 µM and 11 µM | 41 µM and 32 µM | 25 µM and 11 µM
human FcγRIIIa V158 (receptor) | 4 µM and 5 µM | 29 µM | 21 µM and 14 µM | 84 µM and 27 µM
